Test results as given in patent KR20150078472A (dated 2015).

T1: AIMP1/p43 natively expressed in human cells (HeLa cell lysate) (human, UniProt Q12904 2-312, limits assumed)
T1 construct: Endogenous protein, denatured on a western blot; also called human 세포에서 원래 발현된 AIMP1/p43
T1 sequence (looked up): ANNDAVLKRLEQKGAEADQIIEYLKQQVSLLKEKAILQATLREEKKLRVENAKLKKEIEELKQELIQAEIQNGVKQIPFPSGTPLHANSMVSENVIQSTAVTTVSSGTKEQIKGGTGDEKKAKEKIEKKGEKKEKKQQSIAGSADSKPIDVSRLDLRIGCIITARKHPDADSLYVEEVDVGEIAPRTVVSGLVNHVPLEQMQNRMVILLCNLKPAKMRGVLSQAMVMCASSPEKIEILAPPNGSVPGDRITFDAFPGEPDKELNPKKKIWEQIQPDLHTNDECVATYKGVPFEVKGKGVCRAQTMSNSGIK

T2: Tyrosyl-tRNA synthetase (YRS) (UniProt P54577 1-528, limits assumed)
T2 construct: Recombinant antigen, purity above 90%, coupled to a Luminex bead; also called 타이로실-tRNA 합성효소
T2 sequence (looked up): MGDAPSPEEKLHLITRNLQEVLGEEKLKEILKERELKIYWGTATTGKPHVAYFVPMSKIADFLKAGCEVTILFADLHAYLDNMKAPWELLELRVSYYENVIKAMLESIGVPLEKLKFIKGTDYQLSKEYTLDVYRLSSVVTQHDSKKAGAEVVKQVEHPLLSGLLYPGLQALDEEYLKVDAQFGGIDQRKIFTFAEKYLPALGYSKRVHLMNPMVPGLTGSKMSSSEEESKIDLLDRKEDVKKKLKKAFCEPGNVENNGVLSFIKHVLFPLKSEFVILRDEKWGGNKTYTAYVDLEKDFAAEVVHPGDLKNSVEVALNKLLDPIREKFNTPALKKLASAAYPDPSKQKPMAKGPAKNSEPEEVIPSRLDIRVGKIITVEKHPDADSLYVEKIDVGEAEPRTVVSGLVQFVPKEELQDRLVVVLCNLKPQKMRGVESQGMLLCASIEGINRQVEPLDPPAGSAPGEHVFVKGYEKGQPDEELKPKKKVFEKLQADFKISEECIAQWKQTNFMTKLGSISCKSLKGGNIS

T3: Glycyl-tRNA synthetase (GRS) (UniProt P41250 55-739, limits assumed)
T3 construct: Recombinant antigen, purity above 90%, coupled to a Luminex bead; also called 글리실-tRNA 합성효소
T3 sequence (looked up): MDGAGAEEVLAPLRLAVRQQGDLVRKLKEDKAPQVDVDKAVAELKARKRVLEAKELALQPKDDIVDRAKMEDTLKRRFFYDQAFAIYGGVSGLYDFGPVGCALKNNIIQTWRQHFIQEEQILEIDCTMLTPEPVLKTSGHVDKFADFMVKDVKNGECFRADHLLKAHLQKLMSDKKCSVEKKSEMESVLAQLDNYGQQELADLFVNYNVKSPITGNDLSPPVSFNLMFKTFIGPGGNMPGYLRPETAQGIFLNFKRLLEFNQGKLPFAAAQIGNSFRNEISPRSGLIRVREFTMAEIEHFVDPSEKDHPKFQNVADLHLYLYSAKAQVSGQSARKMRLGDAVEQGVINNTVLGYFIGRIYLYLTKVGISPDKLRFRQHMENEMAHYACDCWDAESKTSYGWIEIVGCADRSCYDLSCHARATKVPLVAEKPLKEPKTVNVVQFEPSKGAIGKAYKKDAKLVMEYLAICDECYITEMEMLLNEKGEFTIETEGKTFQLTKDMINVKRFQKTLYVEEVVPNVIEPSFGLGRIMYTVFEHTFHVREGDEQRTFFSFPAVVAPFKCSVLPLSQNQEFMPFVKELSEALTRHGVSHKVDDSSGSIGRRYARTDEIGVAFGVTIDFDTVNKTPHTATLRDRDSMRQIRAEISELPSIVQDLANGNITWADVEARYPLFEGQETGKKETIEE

T4: Tryptophanyl-tRNA synthetase (WRS) (UniProt P23381 1-471, limits assumed)
T4 construct: Recombinant antigen, purity above 90%, coupled to a Luminex bead; also called 트립토파닐-tRNA 합성효소
T4 sequence (looked up): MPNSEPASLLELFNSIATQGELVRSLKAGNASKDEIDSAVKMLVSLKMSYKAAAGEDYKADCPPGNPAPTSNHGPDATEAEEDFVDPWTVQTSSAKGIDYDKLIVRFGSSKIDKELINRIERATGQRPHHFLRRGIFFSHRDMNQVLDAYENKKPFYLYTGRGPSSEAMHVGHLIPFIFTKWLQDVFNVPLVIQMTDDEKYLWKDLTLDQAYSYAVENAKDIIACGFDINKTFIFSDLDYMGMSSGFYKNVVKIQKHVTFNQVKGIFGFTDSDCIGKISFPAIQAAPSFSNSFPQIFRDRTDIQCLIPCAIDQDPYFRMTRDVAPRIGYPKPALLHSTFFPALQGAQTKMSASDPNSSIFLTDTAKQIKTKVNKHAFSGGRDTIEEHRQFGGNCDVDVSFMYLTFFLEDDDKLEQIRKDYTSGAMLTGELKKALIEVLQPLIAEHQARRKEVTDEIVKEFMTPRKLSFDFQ

T5: Histidyl-tRNA synthetase (HRS) (UniProt P12081 1-509, limits assumed)
T5 construct: Recombinant antigen, purity above 90%, coupled to a Luminex bead; also called 히스티딜-tRNA 합성효소
T5 sequence (looked up): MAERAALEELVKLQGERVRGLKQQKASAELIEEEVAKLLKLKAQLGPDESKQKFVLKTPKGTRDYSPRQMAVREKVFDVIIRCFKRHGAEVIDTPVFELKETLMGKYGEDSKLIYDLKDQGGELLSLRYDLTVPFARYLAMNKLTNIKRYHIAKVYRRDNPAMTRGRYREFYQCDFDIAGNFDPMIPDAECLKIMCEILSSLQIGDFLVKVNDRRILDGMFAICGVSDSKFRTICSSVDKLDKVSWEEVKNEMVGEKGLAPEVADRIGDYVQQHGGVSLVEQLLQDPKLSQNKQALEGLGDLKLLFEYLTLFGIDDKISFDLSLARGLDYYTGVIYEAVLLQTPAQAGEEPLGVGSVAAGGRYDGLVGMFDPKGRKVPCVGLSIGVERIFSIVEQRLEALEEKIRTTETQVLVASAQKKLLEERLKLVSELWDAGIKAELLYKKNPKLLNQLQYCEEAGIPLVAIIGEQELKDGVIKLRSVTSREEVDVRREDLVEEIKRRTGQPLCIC

T6: Asparaginyl-tRNA synthetase (NRS) (UniProt O43776 1-548, limits assumed)
T6 construct: Recombinant antigen, purity above 90%, coupled to a Luminex bead; also called 아스파라기닐딜-tRNA 합성효소
T6 sequence (looked up): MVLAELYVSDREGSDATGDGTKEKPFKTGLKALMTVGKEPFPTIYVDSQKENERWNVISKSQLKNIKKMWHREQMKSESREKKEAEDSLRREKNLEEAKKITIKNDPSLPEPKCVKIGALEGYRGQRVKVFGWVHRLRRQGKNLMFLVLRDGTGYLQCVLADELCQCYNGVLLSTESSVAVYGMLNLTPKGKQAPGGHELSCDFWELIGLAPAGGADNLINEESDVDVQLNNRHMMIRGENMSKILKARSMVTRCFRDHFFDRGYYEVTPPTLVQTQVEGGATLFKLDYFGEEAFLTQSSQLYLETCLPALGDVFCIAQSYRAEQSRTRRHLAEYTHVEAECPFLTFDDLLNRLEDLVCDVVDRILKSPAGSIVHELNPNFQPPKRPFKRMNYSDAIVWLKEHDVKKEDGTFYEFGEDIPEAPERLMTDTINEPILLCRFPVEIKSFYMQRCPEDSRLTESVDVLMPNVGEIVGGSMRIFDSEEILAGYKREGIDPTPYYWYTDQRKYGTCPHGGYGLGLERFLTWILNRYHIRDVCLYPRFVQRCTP

T7: recombinant AIMP1/p43 (ARS-interacting multifunctional protein 1) (human, UniProt Q12904 1-312, limits assumed)
T7 construct: Purified recombinant antigen used in SPR, on Luminex beads and as the ELISA standard; It calls the target human AIMP1/p43 in the summary and claims; also called AIMP1/p43 항원; 재조합 AIMP1/p43 표준물질
T7 sequence (looked up): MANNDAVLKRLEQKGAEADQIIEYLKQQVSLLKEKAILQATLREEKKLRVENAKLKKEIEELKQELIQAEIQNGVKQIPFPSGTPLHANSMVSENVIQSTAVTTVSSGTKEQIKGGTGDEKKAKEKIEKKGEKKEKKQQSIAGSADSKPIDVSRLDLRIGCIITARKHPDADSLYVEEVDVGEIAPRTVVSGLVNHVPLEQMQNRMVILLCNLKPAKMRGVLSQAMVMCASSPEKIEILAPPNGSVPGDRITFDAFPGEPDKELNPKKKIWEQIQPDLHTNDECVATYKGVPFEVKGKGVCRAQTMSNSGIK


Tests used:
[1] = target: T1, AIMP1/p43 natively expressed in human …; assay: western blot on HeLa cell lysate, periplasmic scFv, anti-HA-HRP detection
[2] = target: T2, Tyrosyl-tRNA synthetase (YRS); assay: Luminex multiplex bead assay, antigen-coupled beads, anti-HA-biotin and SA-PE detection
[3] = target: T3, Glycyl-tRNA synthetase (GRS); assay: as above
[4] = target: T4, Tryptophanyl-tRNA synthetase (WRS); assay: as above
[5] = target: T5, Histidyl-tRNA synthetase (HRS); assay: as above
[6] = target: T6, Asparaginyl-tRNA synthetase (NRS); assay: as above
[7] = target: T8, Lysyl-tRNA synthetase (KRS) (UniProt Q15046 1-597, limits assumed); assay: as above
T8 construct: Recombinant antigen, purity above 90%, coupled to a Luminex bead; also called 리실-tRNA 합성효소

[8] = target: T9, Seryl-tRNA synthetase (SRS) (UniProt P49591 1-514, limits assumed); assay: as above
T9 construct: Recombinant antigen, purity above 90%, coupled to a Luminex bead; also called 세릴-tRNA 합성효소

[9] = target: T7, recombinant AIMP1/p43 (ARS-interacting …); assay: SPR (ProteOn XPR36), AIMP1/p43 amine-coupled on GLC chip, scFv 200-25 nM as analyte, 25°C

T8 sequence (Q15046 whole entry): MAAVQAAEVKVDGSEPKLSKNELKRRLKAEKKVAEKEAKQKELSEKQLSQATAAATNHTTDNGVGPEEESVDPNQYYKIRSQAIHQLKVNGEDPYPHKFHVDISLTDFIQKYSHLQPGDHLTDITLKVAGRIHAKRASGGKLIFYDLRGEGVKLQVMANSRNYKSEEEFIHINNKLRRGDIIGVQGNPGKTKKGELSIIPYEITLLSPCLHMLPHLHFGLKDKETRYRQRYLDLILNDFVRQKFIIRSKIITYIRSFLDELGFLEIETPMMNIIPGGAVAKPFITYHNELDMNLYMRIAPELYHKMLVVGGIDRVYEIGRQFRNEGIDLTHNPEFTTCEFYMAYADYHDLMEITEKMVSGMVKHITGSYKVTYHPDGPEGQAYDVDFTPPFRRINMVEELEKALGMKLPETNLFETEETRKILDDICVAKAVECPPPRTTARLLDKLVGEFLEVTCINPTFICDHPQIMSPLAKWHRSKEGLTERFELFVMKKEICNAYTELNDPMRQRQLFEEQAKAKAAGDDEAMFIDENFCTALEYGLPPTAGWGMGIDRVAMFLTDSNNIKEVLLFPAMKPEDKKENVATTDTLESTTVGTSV
T9 sequence (P49591 whole entry): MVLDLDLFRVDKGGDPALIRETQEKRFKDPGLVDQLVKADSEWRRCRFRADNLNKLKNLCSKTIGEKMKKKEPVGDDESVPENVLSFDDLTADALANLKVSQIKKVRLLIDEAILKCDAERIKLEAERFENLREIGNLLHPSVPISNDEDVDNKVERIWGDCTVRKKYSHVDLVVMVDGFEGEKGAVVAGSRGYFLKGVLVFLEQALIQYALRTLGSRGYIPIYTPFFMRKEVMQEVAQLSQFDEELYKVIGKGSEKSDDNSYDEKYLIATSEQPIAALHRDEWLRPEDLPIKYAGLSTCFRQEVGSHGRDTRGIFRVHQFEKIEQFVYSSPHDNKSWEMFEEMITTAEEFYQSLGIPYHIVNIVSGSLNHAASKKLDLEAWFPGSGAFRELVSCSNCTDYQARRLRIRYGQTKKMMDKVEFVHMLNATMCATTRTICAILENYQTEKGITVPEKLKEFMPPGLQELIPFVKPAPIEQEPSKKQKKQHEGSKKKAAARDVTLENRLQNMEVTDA

Binder	binding result [1]	binding result [2]	binding result [3]	binding result [4]	binding result [5]	binding result [6]	binding result [7]	binding result [8]	binding result [9]
anti-AIMP1/p43 scFv Biocon-AM1-1 (scFv, Expressed from pComb3X in the E. coli periplasm; also called antibody i)) scFv: EVQLLEFLGEGLVQPGGSLRLSCAASGFTFSSYDMSWVRQAPGKGLEWVSVISSDGGSTYYADSVRGRFTISRDNSKNTLYLQMNSLRAEDTAVYYCAKDVMKTGTLVFDYWGQGTLVTVSSGGGGSGGGGSGGGGSQSVLTQPPSASGTPGQRVTISCSGSSSNIGSNDVSWYQQLPGTAPKLLIYADSKRPSGVPDRFSGSKSGTSASLAISGLRSEDEADYYCGSWDDSLSGYVFGGGTKLTVL	binds	no binding	no binding	no binding	no binding	no binding	no binding	no binding	binds
anti-AIMP1/p43 scFv Biocon-AM1-2 (scFv, Expressed from pComb3X in the E. coli periplasm; also called antibody ii)) scFv: EVQLLESGGGLVQPGGSLRLSCAASGFTFSNYDMSWVRQAPGKGLEWVSSIYPNGSSKYYADSVKGRFTISRDNSKNTLYLQMNSLRAEDTAVYYCARDVLLCISMRCYYADGMDVWGQGTLVTVSSGGGGSGGGGSGGGGSQSVLTQPPSASGTPGQRVTISCSGSSSNIGNNAVNWYQQLPGTAPKLLIYANSHRPSGVPDRFSGSQSGTSASLAISGLRSEDEADYYCGSWDSSLNGYVFGGGTKLTVL	binds	no binding	no binding	no binding	no binding	no binding	no binding	no binding	binds
